According to patent US9518268B2, “Drought tolerant transgenic plants and method of making same” (PURDUE RESEARCH FOUNDATION, priority 2013, dated 2016):
Like-named read-outs stand apart in the source and are kept apart here.

T1: ABI1 (Arabidopsis thaliana, UniProt P49597+Q8H1R0)
T1 sequence (P49597 1-434): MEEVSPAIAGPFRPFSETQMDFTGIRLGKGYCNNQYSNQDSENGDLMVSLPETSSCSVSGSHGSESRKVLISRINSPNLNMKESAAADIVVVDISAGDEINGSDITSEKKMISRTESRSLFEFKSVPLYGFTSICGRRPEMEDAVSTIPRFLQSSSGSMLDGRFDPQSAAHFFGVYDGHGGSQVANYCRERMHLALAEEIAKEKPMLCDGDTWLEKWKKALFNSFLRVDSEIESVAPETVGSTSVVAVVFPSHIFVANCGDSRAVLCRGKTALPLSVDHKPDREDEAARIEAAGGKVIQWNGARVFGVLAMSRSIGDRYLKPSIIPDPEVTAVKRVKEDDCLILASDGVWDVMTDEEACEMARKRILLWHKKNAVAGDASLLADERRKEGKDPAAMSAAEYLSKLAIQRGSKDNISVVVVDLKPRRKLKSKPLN
T1 sequence (Q8H1R0 1-183): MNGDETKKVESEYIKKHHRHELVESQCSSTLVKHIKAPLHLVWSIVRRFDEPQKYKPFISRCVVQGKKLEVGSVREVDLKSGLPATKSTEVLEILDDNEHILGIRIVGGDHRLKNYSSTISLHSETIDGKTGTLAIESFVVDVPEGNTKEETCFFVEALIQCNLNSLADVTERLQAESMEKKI


Columns and labels:
ABI1 [1] = test: Phosphatase activity assay (pNPP) with purified PP2Cs and PYLs; type: biochemical, Arabidopsis thaliana; settings: in the presence of 10 μM ABA; ABI1 and PYLs 0.3 μM
Method: The inhibition by PYL13 is ABA-independent, whereas the inhibition by PYR1 and PYL2 is ABA-induced (FIG. 4B). […] The phosphatase activities of PP2CA, ABI1, and ABI2 were measured in the absence or presence of ABA (1.25 μM), and with or without PYLs. The concentration of PP2Cs and PYLs was 0.3 μM. The A405 value of reaction without PP2C was set as 0% and that of the reaction with PP2C but without ABA and PYLs was set as 100%. Error bars indicate s.e.m. (n=6 for PP2CA and ABI2, and n=3 for ABI1).
To test the functional significance of potential heterodimer formation between PYL13 and other PYLs, the abilities of PYL1 and PYL2 and the protein complexes PYL13-PYL1 and PYL13-PYL2 to inhibit the phosphatase activity of ABI1 were compared using purified recombinant proteins and the synthetic phosphatase substrate pNPP. […] The phosphatase activity of ABI1 was measured (using pNPP) in the absence or presence of 10 μM ABA, with or without PYLs, and with PYL13-PYL dimers. The concentration of ABI1 and PYLs was 0.3 μM. The A405 value of reaction without ABI1 was set as 0% and that of the reaction with ABI1 but without ABA and PYLs was set as 100%. Error bars indicate s.e.m. (n=6). In the presence of 10 μM ABA, ABI1 phosphatase activity was reduced to 67±6% by PYL1 but only to 88±8% by PYL13-PYL1. In the presence of 10 μM ABA, ABI1 phosphatase activity was reduced to 50±3% by PYL2 but only to 78±10% by PYL13-PYL2.
Phosphatase activity was measured using the colorimetric substrate p-nitrophenyl phosphate (pNPP, SIGMA). Reactions were performed in a reaction buffer containing 50 mM Tris-HCl, pH 7.5, 25 mM Mg(OAc)2, 2 mM MnCl2, 0.5 mM EGTA, 0.5% β-mercaptoethanol, and 0.5% BSA. ABA and PYLs were added as indicated. The concentration of PP2Cs and PYLs was 0.3 μM. Reactions were initiated by the addition of pNPP to a final concentration of 50 mM. The hydrolysis of pNPP was measured by following the absorbance at 405 nm (A405). Because His-PYL13 is difficult to purify, is prone to degradation, and rapidly loses activity, newly purified PYL13 was used for the phosphatase activity assay.

ABI1 [2] = molecular target: T1, ABI1; settings: read-out: dissociation constant (Kd) of PYL10-ABI1 interaction, cited from earlier work

Molecule | ABI1 phosphatase activity reduced to (ABI1 [1]) [%] | Kd (ABI1 [2]; with ABA) [nM] | Kd (ABI1 [2]; without ABA) [nM]
PYL1: Arabidopsis thaliana PYL family ABA receptor protein PYL1, AT5G46790 | 67±6 | – | –
PYL13-PYL1: protein complex (heterodimer) of purified recombinant PYL13 and PYL1 | 88±8 | – | –
PYL13-PYL2: protein complex (heterodimer) of purified recombinant PYL13 and PYL2 | 78±10 | – | –
PYL10: Arabidopsis thaliana PYL family protein PYL10, AT4G27920 (protein, listed as Arabidopsis thaliana) MNGDETKKVESEYIKKHHRHELVESQCSSTLVKHIKAPLHLVWSIVRRFDEPQKYKPFISRCVVQGKKLEVGSVREVDLKSGLPATKSTEVLEILDDNEHILGIRIVGGDHRLKNYSSTISLHSETIDGKTGTLAIESFVVDVPEGNTKEETCFFVEALIQCNLNSLADVTERLQAESMEKKI | – | 20 | 1200
